# Assay results: the supplement of paper PMC7125110
# ± gives the standard error. For part of these data: This sample holds only a part of the variants without activity.
# B1: glmS ribozyme (parent)
# chain: AUAAAAGCGCCAGAACUACAGAAAUGUAGUUGACGAGGAGGAGGUUUAUCGAAUUUUCGGCGGAUGCCUCCAAA
# Experiments:
# Details in all cases: with glucosamine-6-phosphate
# glucosamine-6-phosphate [1] = variants of: B1; assay: kcat; higher = faster cleavage; RNA array
# Procedure, shortened: (§1)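 Barcoded ribozyme variants on sequenced MiSeq chips were transcribed in situ by E. coli RNA polymerase and followed at 37 °C through a hybridised Cy3 probe. Glucosamine-6-phosphate at 40 μM to 10 mM in HEPES/KCl/Mg(OAc)2 buffer was flowed in, and tiles were imaged over ~14 h. Signals were normalised to baseline and to non-cleaving reference variants, and per-tile medians were fit to one- or two-exponential decays to give kobs. Weighted Michaelis–Menten fits across concentrations gave kcat and KM.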
# glucosamine-6-phosphate [2] = variants of: B1; assay: KM; higher = weaker cofactor use; RNA array
# Procedure, shortened: as §1
# glucosamine-6-phosphate [3] = variants of: B1; assay: self-cleavage kobs at 40 uM GlcN6P; higher = faster cleavage; RNA array
# Procedure, shortened: as §1
# glucosamine-6-phosphate [4] = variants of: B1; assay: self-cleavage kobs at 160 uM GlcN6P; higher = faster cleavage; RNA array
# Procedure, shortened: as §1
# glucosamine-6-phosphate [5] = variants of: B1; assay: self-cleavage kobs at 640 uM GlcN6P; higher = faster cleavage; RNA array
# Procedure, shortened: as §1
# glucosamine-6-phosphate [6] = variants of: B1; assay: self-cleavage kobs at 2500 uM GlcN6P; higher = faster cleavage; RNA array
# Procedure, shortened: as §1
# glucosamine-6-phosphate [7] = variants of: B1; assay: self-cleavage kobs at 10000 uM GlcN6P; higher = faster cleavage; RNA array
# Procedure, shortened: as §1
Variant,kcat (glucosamine-6-phosphate [1]) [s⁻¹],KM (glucosamine-6-phosphate [2]) [µM],self-cleavage kobs at 40 uM GlcN6P (glucosamine-6-phosphate [3]) [s⁻¹],self-cleavage kobs at 160 uM GlcN6P (glucosamine-6-phosphate [4]) [s⁻¹],self-cleavage kobs at 640 uM GlcN6P (glucosamine-6-phosphate [5]) [s⁻¹],self-cleavage kobs at 2500 uM GlcN6P (glucosamine-6-phosphate [6]) [s⁻¹],self-cleavage kobs at 10000 uM GlcN6P (glucosamine-6-phosphate [7]) [s⁻¹]
AUAAAAGCGCCAGACCUACAGAAAUGUAGUUGACGAGGUGGAGGUUUAUCGAAUUUUCGGCGGAUGCCUCCAAA [A15C A39U],0.00476 ± 0.00092,2170 ± 610,0.000106 ± 1.2e-05,0.000264 ± 5e-05,0.000744 ± 0.00036,0.00216 ± 0.00041,0.00417 ± 0.00045
AUAAAAGCGCCAGAGCUACAGAAAUGUAGUUGACGAGGAGGAGGUUUAUUGAAUUUUCGGCGGAUGCCUCCAAA [A15G C50U],9.75e-05 ± 1.3e-05,2370 ± 1000,–,–,–,4.52e-05 ± 1.3e-05,8.01e-05 ± 1.2e-05
AUAAAAGCGCCAGAACUACAGAAAUGUAGUUGACGAUGAGGAGGUUUAUCGAAUUUCCGGCGGAUGCCUCCAAA [G37U U57C],< 1e-05,–,–,–,–,< 1e-05,< 1e-05
AUAAAAGCGCCAGUUCUACAGAAAUGUAGUUGACGAGGAGGAGGUUUAUCGAAUUUUCGGCGGAUGCCUCCAAA [A14U A15U],0.00245 ± 0.00036,2240 ± 500,5.71e-05 ± 7.8e-06,0.000141 ± 1.6e-05,0.000602 ± 7.4e-05,0.00125 ± 0.00014,0.00202 ± 0.00018
AUAAAAGCGCCAGAUCUACAGAAAUGUAGUUGACGAGGGGGAGGUUUAUCGAAUUUUCGGCGGAUGCCUCGAAA [A15U A39G C71G],0.000145 ± 6.1e-05,–,–,–,0.000116 ± 3.5e-05,9.89e-05 ± 3.7e-05,0.000288 ± 0.0001
AUAAAAGCGCCAGAACUACAGAAAUGUAGUGGACGAGGAGGAGGUUUAUCGAAUUUUCGGCGGAUGUCUCCAAA [U31G C67U],0.00291 ± 0.00094,1040 ± 460,0.000124 ± 9.4e-06,0.000329 ± 6.4e-05,0.00082 ± 0.00012,0.00179 ± 0.00027,0.00391 ± 0.00047
AUAAAAGCGCCAGAAGUACAGAAAUGUAGAUGACGAGGAGGAGGUUUAUCGAAUUUUCGGCGGAUGCCUCCAAA [C16G U30A],0.000474 ± 6e-05,1780 ± 370,–,3.9e-05 ± 1.2e-05,0.00012 ± 2.3e-05,0.000313 ± 6.1e-05,0.000372 ± 9.2e-05
AUAAAAGCGCCAGAGCUACAGAAAUGUAGUUGACGAGGAGGAGGUCUAUCGAAUUUUCGGCGGAUGCCUCCAAA [A15G U46C],0.00378 ± 0.0014,1440 ± 680,0.000112 ± 2.9e-05,0.000465 ± 0.00016,0.000897 ± 0.00029,–,0.00388 ± 0.0013
AUAAAAGCGCCAGGACUACAGAAAUGUAGUUGACGAGGAGGAGGUUUAUCGCAUUUUCGGCGGAUGCCUCCAAA [A14G A52C],4.48e-05 ± 2.1e-06,3920 ± 400,–,–,–,1.73e-05 ± 7.9e-06,3.23e-05 ± 1.3e-05
AUAAAAGCGACAGAACUACAGAAAUGUAGAUGACGAGGAGGAGGUUUAUCGAAUUUUCGGCGGAUGCUUCCAAA [C10A U30A C68U],7.99e-05 ± 2.3e-05,–,–,8.08e-05 ± 2.5e-05,–,–,–
AUAAAAGCGCCAGAACUACAGAAAUGUAGUUGACGAGGAGGAGGUCUAUCGAAUUUUCGGCGGAUGCCUCCAAA [U46C],0.00387 ± 0.00034,1410 ± 170,0.000108 ± 2.5e-06,0.000364 ± 1.3e-05,0.00126 ± 3.5e-05,0.00342 ± 0.00018,0.00329 ± 7.7e-05
AUAAAAGCGCCAGAACUACAGAAAUGUAGUUGACGAGGAGGAGGUUUUUCGAAUUUUCGGCGGAUGCCUCAAAA [A48U C71A],0.000129 ± 1.2e-05,1380 ± 540,–,–,–,0.000102 ± 2.6e-05,0.000111 ± 1.4e-05
AUAAAAGCGCCAGAACUACAGAAAUGUAGUUAACGAGGAGGAGGUUUAUCGAAUUUUCGUCGGAUGCCUCCAAA [G32A G60U],< 1e-05,–,–,< 1e-05,–,–,< 1e-05
AUAAAAGCGCCAGAACUACAGAAAUGUAGUUGACGAGGGGGAGGUUUAUCGAUUUUUCGGCGGAUGCCUCCAAA [A39G A53U],0.0202 ± 0.0043,805 ± 260,0.00108 ± 0.00016,0.00271 ± 0.00057,0.0101 ± 0.0016,0.0119 ± 0.0027,0.0229 ± 0.0041
AUAAAAGCGCCAGAACUACAGAAAUGUAGUUGACGAGGAGGAGGUUUUUCGAAUUCUCGGCGGAUGCCUCCAAA [A48U U56C],6.46e-05 ± 1e-05,–,–,< 1e-05,–,4.13e-05 ± 1.7e-05,5.09e-05 ± 7.6e-06
